The term stoichiometry N denotes the number of molecules, sites or subunits per partner or assembly.

The data set deals with the molecule itself. Description: non-reducing and reducing SDS-PAGE after surface biotinylation and anti-HA immunoprecipitation; cells surface biotinylated, lysed in 1% NP40 ± 10 mM iodoacetamide, HA-tagged protein precipitated with anti-HA resin, blot with streptavidin-HRP; with or without BTN3A1, with or without Zol.

B1: HA-tagged BTN2A1 (surface biotinylation experiment) (natural protein, human, UniProt Q7KYR7 29-527, looked up)
chain: QFIVVGPTDPILATVGENTTLRCHLSPEKNAEDMEVRWFRSQFSPAVFVYKGGRERTEEQMEEYRGRTTFVSKDISRGSVALVIHNITAQENGTYRCYFQEGRSYDEAILHLVVAGLGSKPLISMRGHEDGGIRLECISRGWYPKPLTVWRDPYGGVAPALKEVSMPDADGLFMVTTAVIIRDKSVRNMSCSINNTLLGQKKESVIFIPESFMPSVSPCAVALPIIVVILMIPIAVCIYWINKLQKEKKILSGEKEFERETREIALKELEKERVQKEEELQVKEKLQEELRWRRTFLHAVDVVLDPDTAHPDLFLSEDRRSVRRCPFRHLGESVPDNPERFDSQPCVLGRESFASGKHYWEVEVENVIEWTVGVCRDSVERKGEVLLIPQNGFWTLEMHKGQYRAVSSPDRILPLKESLCRVGVFLDYEAGDVSFYNMRDRSHIYTCPRSAFSVPVRPFFRLGCEDSPIFICPALTGANGVTVPEEGLTLHRVGTHQSL
modifications: surface lysines biotinylated with EZ-Link Sulfo NHS-LC-biotin
notes: Butyrophilin-2A1 (BTN2A1), human; also called CHO-cell expressed BTN2A1; cell surface BTN2A1
For B1, the “stoichiometry N” value was 2.
